B1: PBXIP1 (parent)
chain: FGEDGIFRHDRLRFRDFVDALEDS

Variants of: B1
Assay: protein stability index of a GFP-peptide fusion (GPS, HEK-293T) (PSI 1-6); higher = more stable
Settings: c terminus: a fixed tail appended
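Note: lentivirally expressed fusions sorted by FACS into six bins by GFP to DsRed ratio, PSI derived from sequencing read proportions per bin multiplied by bin number.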

Variant	protein stability index
FGEDGIFRHDRLRFRDFQDALEDS	3.49
FGEDGIFRHDRLRFRDFADALEDS	2.73
FGEDGIFRHDRLRFRDFSDALEDS	3.11
FGEDGIFRHDRLMFRDFVDALEDS	2.79
FGEDGIFRHDRLDFRDFVDALEDS	3.29
FGEDGIFRHDRLKFRDFVDALEDS	2.85
FGEDGIFRHDRLTFRDFVDALEDS	3.26
FGEDGIFRHDRLNFRDFVDALEDS	3.56
FGEDGIFRHDRLCFRDFVDALEDS	2.73
FGEDGIFRHDRLAFRDFVDALEDS	3.13
FGEDGIFRHDRLWFRDFVDALEDS	1.99
FGEDGIFRHDRLVFRDFVDALEDS	2.72
FGEDGIFRHDRLPFRDFVDALEDS	3.35
FGEDGIFRHDRLFFRDFVDALEDS	2.25
FGEDGIFRHDRLQFRDFVDALEDS	3.74
FGEDGIFRHDRLGFRDFVDALEDS	2.9
FGEDGIFRHDRLIFRDFVDALEDS	2.26
FGEDGIFRHDRLHFRDFVDALEDS	2.57
FGEDGIFRHDRLYFRDFVDALEDS	2.32
FGEDGIFRHDRLSFRDFVDALEDS	2.92
FGEDGIFRHDRLEFRDFVDALEDS	4.02
FGEDGIFRHDRLLFRDFVDALEDS	2.71
FGEDGIFRHDSLRFRDFVDALEDS	2.73
FGEDGIFRHDYLRFRDFVDALEDS	2.35

Variant	protein stability index
FGEDGIFRHDELRFRDFVDALEDS	3.36
FGEDGIFRHDHLRFRDFVDALEDS	2.83
FGEDGIFRHDALRFRDFVDALEDS	2.57
FGEDGIFRHDQLRFRDFVDALEDS	3.29
FGEDGIFRHDKLRFRDFVDALEDS	2.57
FGEDGIFRHDVLRFRDFVDALEDS	2.46
FGEDGIFRHDILRFRDFVDALEDS	2.43
FGEDGIFRHDDLRFRDFVDALEDS	3.95
FGEDGIFRHDNLRFRDFVDALEDS	3.09
FGEDGIFRHDGLRFRDFVDALEDS	3.12
FGEDGIFRHDLLRFRDFVDALEDS	2.33
FGEDGIFRHDTLRFRDFVDALEDS	3.02
FGEDGIFRHDPLRFRDFVDALEDS	3.13
FGEDGIFRHDFLRFRDFVDALEDS	2.5
FGEDGIFRHDCLRFRDFVDALEDS	2.73
FGEDGIFRHDWLRFRDFVDALEDS	2.49
FGEDGIFRHDMLRFRDFVDALEDS	2.44
FGEDGIFRHDRLRFRRFVDALEDS	2.36
FGEDGIFRHDRLRFRGFVDALEDS	1.97
FGEDGIFRHDRLRFRWFVDALEDS	1.85
FGEDGIFRHDRLRFRHFVDALEDS	2.09
FGEDGIFRHDRLRFRMFVDALEDS	1.78
FGEDGIFRHDRLRFRAFVDALEDS	2.41
FGEDGIFRHDRLRFRFFVDALEDS	2.12

Variant	protein stability index
FGEDGIFRHDRLRFRVFVDALEDS	2.43
FGEDGIFRHDRLRFRPFVDALEDS	2.27
FGEDGIFRHDRLRFRYFVDALEDS	1.88
FGEDGIFRHDRLRFRQFVDALEDS	2.42
FGEDGIFRHDRLRFRKFVDALEDS	1.99
FGEDGIFRHDRLRFRCFVDALEDS	3.01
FGEDGIFRHDRLRFREFVDALEDS	3.17
FGEDGIFRHDRLRFRTFVDALEDS	2.08
FGEDGIFRHDRLRFRSFVDALEDS	2.23
FGEDGIFRHDRLRFRLFVDALEDS	1.55
FGEDGIFRHDRLRFRIFVDALEDS	2.06
FGEDGIFRHDRLRFRNFVDALEDS	1.89
FGEDGIFRHLRLRFRDFVDALEDS	2.16
FGEDGIFRHMRLRFRDFVDALEDS	2.19
FGEDGIFRHRRLRFRDFVDALEDS	2.15
FGEDGIFRHIRLRFRDFVDALEDS	1.67
FGEDGIFRHQRLRFRDFVDALEDS	1.86
FGEDGIFRHTRLRFRDFVDALEDS	2.07
FGEDGIFRHPRLRFRDFVDALEDS	1.85
FGEDGIFRHHRLRFRDFVDALEDS	2.39
FGEDGIFRHKRLRFRDFVDALEDS	2.04
FGEDGIFRHNRLRFRDFVDALEDS	2.83
FGEDGIFRHVRLRFRDFVDALEDS	1.52
FGEDGIFRHSRLRFRDFVDALEDS	2.06

Variant	protein stability index
FGEDGIFRHWRLRFRDFVDALEDS	1.74
FGEDGIFRHYRLRFRDFVDALEDS	1.79
FGEDGIFRHGRLRFRDFVDALEDS	2.33
FGEDGIFRHDRLRFRDFVMALEDS	2.56
FGEDGIFRHDRLRFRDFVWALEDS	2.18
FGEDGIFRHDRLRFRDFVTALEDS	2.61
FGEDGIFRHDRLRFRDFVKALEDS	2.9
FGEDGIFRHDRLRFRDFVLALEDS	1.61
FGEDGIFRHDRLRFRDFVHALEDS	2.9
FGEDGIFRHDRLRFRDFVGALEDS	2.37
FGEDGIFRHDRLRFRDFVSALEDS	2.4
FGEDGIFRHDRLRFRDFVAALEDS	2.59
FGEDGIFRHDRLRFRDFVFALEDS	2.22
FGEDGIFRHDRLRFRDFVCALEDS	2.47
FGEDGIFRHDRLRFRDFVRALEDS	2.48
FGEDGIFRHDRLRFRDFVYALEDS	2.35
FGEDGIFRHDRLRFRDFVEALEDS	2.6
FGEDGIFRHDRLRFRDFVNALEDS	2.65
FGEDGIFRHDRLRFRDFVVALEDS	1.91
FGEDGIFRHDRLRFRDFVIALEDS	1.91
FGEDGIFRHDRLRFRDFVQALEDS	2.49
FGEDGIFRHDRLRFRDFVPALEDS	2.53
